Assay results taken from the nanobody polyreactivity screen of Harvey et al. (2022).

Assay: yeast display, Sf9 membrane polyspecificity reagent, FACS + sequencing; frameworks hold sequencing errors
Procedure, shortened: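 Polyreactivity labels are assigned by the sorting gate from which each nanobody was recovered. The gates were low and high (top ~1%), set on anti-HA fluorescence for expression and streptavidin fluorescence for reagent binding. Before sorting, galactose-induced (36–48 hours) yeast display cells were stained for 1 hour at 4 °C with 10% biotinylated, detergent-solubilized Sf9 membrane reagent.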

Sequence | polyreactivity (PSR sort gate)
QVQLVQSGGGLVQAGGSLRLSCAASGRIFNYNAMGWYRQAPGKERELVAAINRSGVSTHYADSVKGRFTISRDNAKNTVYLQMNSLKPEDTAVYYCARTVYGARSYDYWGQGTQVTVSS | low polyreactivity
QVQLVQSGGGLVQAGGSLRLSCAASGRIFPRYGMGWYRQAPGKERELCADITSSGSTYADSVKGRFTISRDNAKNTDYLQMHSLKPEDTAVYYCNALDRRLSYSWRYRQLYDYWGQGTQGTVSS | high polyreactivity
QVQLVQSGGGLVQAGGSLRLSCAASGRNYSDNPMGWYRQAPGKERELVAANSSTGGTYYADSVKGRFTISRDNAKNTVYLQMNSLKPEDTAVYYCAARYRTLTKYYWGQGTQVSVSS | low polyreactivity
QVQLVQSGGGLVQAGGSLRLSCAASGRPSLLMLWDGIDRRLGKKGSWLPLLTLVTPTTYADSVKGRFTISRDNAKNTVYLQMNSLKPEDTAVYYCNADFRPLDHYVNWYYYWGQGTQVTVSS | low polyreactivity
QVQLVQSGGGLVQAGGSLRLSCAASGRTFGVYAMGWYRQAPGKERELVAAITWSGGSTYYADSVKGRFTISRDNAKNTVYLQMNSLKPEDTAVYYCAALTWLSGVKMGYWGQGTQVTVSS | high polyreactivity
QVQLVQSGGGLVQAGGSLRLSCAASGSIFLYYVMGWYRQAPGQERELVAAITWDGGSTYYADSVKGRFTISRDNAKNTVYLQMNSLNPEDTAVYFCAARVASKYLVYRKRPSRYDYWGQGTQLTVSS | low polyreactivity
QVQLVQSGGGLVQAGGSLRLSCAASGSTFPTNAMGSYRQAPGKERELVAAISSSGGRTYYADSVKGRFTISRDNAKKTDYLQRNSLKPEDTAVYYCAAVWWRAYAVRMYYWGQGTQVTVSS | high polyreactivity
QVQLVQSGGGLVQAGGSLRLSCAASGSTFYYYGMRSYREAPGKEMELFASISWRGGSTYSADSVKGRYTISRDNAKNTVYLQMNSLKPEDTAVYYCAASRRPWYRAVTWNAGDYWGQGTQVTVSS | high polyreactivity
QVQLVQSGGGLVQAGGSLRLSCAASGSTIAYKAMGWNRQAPGKEREMLAAISWRGGSTYYADSVKGRFTISRDNAKNTVYLQMKSLKPEDTAVYYCAKVYRAYTDVVRYGYWGQGSQVTVSS | high polyreactivity
QVQLVQSGGGLVQAGGSLRLSCAASGYTFYVNTMGWYRKAPGKERELVAVISSGGRTNYADSVKGRFTISRDNAKNTVYLQMNSLKPEDTAVYYCAAIGWRTRYRFEYWGIGTQVTVSS | high polyreactivity
QVQLVQSGGGLVQAGGSLRLSCADSGRTFTRYTMGWYRQAPGKERELVAAISSGGSTTYADSVKGRFTISRDNAKNTVYLQMNSLKPEDTAVYYCAAGLVYRGYRRDYWGQGTQVTVSS | low polyreactivity
QVQLVQSGGGLVQAGGSLRLSCAPTGVIFRHNARGWYRQSPGKERELVAAISRSGGNTYYADSVKGRFTISRDNAKQTDYLQRNSLKPEDTAVYYSNKIEYDSWADHVYWGQGTQVTVSS | low polyreactivity
QVQLVQTGGGLVQAGGSLRLSCAGSGSTFTSYVMGWYRQAPGKERELVAAITSSGGDTYYADSVKGRFTISRDNAKNTVYLQMNSVKPEDTAVYYCATRSYYRSSYYRNRYPYDYWGQGTQVTVSS | low polyreactivity
QVQLVSGGGLVHSGGSLRLSCAASGITFESNAMGWYRQGPGKEREFVAAISYDGGDTYYADSVKGRFTISRDNAKNTVYLQMNSLKPDDTSVYYCAAETGWTMDYWGQGTQVTVSS | low polyreactivity
QVQLVSGGGLVQAGGSLRLSCAASGRIFGTYAMGWYRQAPGKERELVAAITSGGSTYYADSVKGRFTISRDNAKNTVYLQMNSLKPEDSAVYYCAAEYAIWTHWGRYVTGNYWGQGTQVTVSS | high polyreactivity
QVQLVVSGGGLDQARGSLSLSCAASGRNFTSYAMGWYRQAPWKERELVAAISWSVGSTYYADSVKGRFTISRDNAKNTVYLQMNSLKPEDTSVYYCNAVYPSVYPVSTRYYWGQGTQVTVSS | high polyreactivity
QVQLVVSGGGLVHAGGSLRLSCAAYGFTVYKNTMGWYRQAPRKERELVAAISSSGSSTYYADTVKGRFTISRDNAKNTVYLQMNSLKPEDTAVYYCAAGRFAYHDDYWGQGTQVTVSS | high polyreactivity
QVQLVVSGGGLVQAGGSLLLSCAASGFTFYSYAMGWYRQAPGKERELVAGISWSGTRTYYADSVKGRFTISRDNAKNTVYLQMISLKPEDTAVYYCAARGYRYGYGYWGQGTQVTVSS | high polyreactivity
QVQLVVSGGGLVQAGGSLRLSCAASGGTFGGYAMGWYRQAPGKERELVAVITQRGGSTSYADSVKGRFTISRDNAKNTVYLQLNSQKREDTAVYYCNASAWLVVARTRYGYWGQGTQVTVSS | low polyreactivity
QVQLVVSGGGLVQAGGSLRLSCAASGITFYYNAMGWYRQAPGKEGEVVAAITRRGGSTYYADSVKGRFTISRDNAKNTVYLQMNSLIPEDTAVYYCAKYIYGYKDSPLGDDYWGQGTQVTVSS | high polyreactivity
QVQLVVSGGGLVQAGGSLRLSCAASGRTFRSNAMGWYRQAPGKERELVAAISRTGRTNYADSVKGRFTISRDTAKNTVYLQMNSLKPEDTAVYYCAARGYSVPRQERYDYWGQGTQVTVSS | high polyreactivity
QVQLVVSGGGLVQAGGSLRLSCAASGRTFSIYAMGWYRQAPWKERELVAAISWSGGRTYYADSVKGRFTISRDNAKNTVYLLMNSLKPEDTAVYYCNKDWIYRGYDYWGQGTQVTVSS | high polyreactivity

Sequence | polyreactivity (PSR sort gate)
QVQLVVSGGGLVQAGGSLRLSCAASGSIFKKYAMGWYRQAPGKERELVAAITRGTYYADSVKGRFTISRDNAKNTVYLLMNSLNPEDTAVYYCNREYWVRGYYRVRGEYDYWGQGTQVTVSS | low polyreactivity
QVQPQESGGGLVQAGGSLRLSCAASGTIFAFQTMGWYRQAPGKERELVASITYGSSTNYADSVKGRFTFSRDNANITVYVQMNSLKPEDTAVYYCAVPQAQYYYYYWGQGTQVTVSS | high polyreactivity
QVQPVESGGGLVQAGGSLRLSCAASGRIFGDYAMGWYRQAPGKERELVAAINCSGTSTNYADSVKGRFTISRDNAKYTVYLEMNSLKPEFTAVYYCNAEGTYRPEYDSWVQGTQVTVSS | low polyreactivity
QVQQQESGGGLVQAGGSLRLSCAASGTIFQLTVMGRYRQAPGKERELVASIDYGGNTNYADSVKGRFTISRDNAKKTVYLQKYIVKPEDTAVYYCAAYSDSWTTHPYWGQVTQVTVSS | low polyreactivity
QVQQQESGGGLVQAGGSLRLSCAASGTIFQLTVMGRYRQAPGKERELVASIDYGGNTNYADSVKGRFTISRDNAKNTVYLQMNRLKPEDTAVYYCSASSDSWTTHPYWGQGTQVTVSS | low polyreactivity
QVQQQESGGGLVQAGGSLRLSCAASGTIFQLTVMGRYRQAPGKERELVASIDYGGNTNYADSVKGRFTISRDNAKYTVYLLMISLKPEDTAVYYCAASSVSWTTHPYWGQGTQVTVSS | low polyreactivity
QVQQQESGGGLVQAGGSLRLSSAASVTILYTLGLGLYRQAPGKTLEFVASITWGTTTNYAESVKGRFTISRDNAKNSVYLQMNSLKPEDTADYYCAARKFVYWYGMEYWGQGTQVTVSS | low polyreactivity
QVQQQESGGGLVQAGGSLRRSCAASGSIFSHWAMGWYRQTPGKERELVASITAGGNNNYADSVKGRFTISRDNAKNTVYLPMNSLKPEDTAVYYCNRRYPGPDSFEHYYYYRYDYWGQGTQVTVSS | low polyreactivity
QVQQQQSGGGLVQAGGSLSLSCAASGTIFQLTVMGRYRQAPGKERELVASIDYGGNTNYADSVKGRFTISRDNAKNTVYLQMNSLKPEDTEVYYCAASSDTWTTHPFWGQGTQVTVSS | low polyreactivity
QVQQQVSGGGLVQAGGSLRLSCAASGYIFQNVPMGWNRQAPGKERDLVAGIDNGTSTNYADSVNGRFTISRDNAKNTVYLQMNSLKPEVTAVYYCAAAGQADDTLGYWGQGTLVTVSS | low polyreactivity
QVQREESGGGLVQAGGRLRLTCAASGSIFGYYVMGWYRQAPGKERELVAAITRSGSTYYADSVKGRFTISRDNAKNTVYLQMNSLKPEDTAVYYCYADVYWPGTPYTHDYWGQGTQVTVSS | low polyreactivity
QVQRVDSGGGLVQAGGSLRLICAASGFTFKYYAMGWYRQAPGKERELVAAITRGGDTYYADSVMGRFTISRDNAKNTVYLQMNRLKPEETAVYYCNTASDKRAFDYWGQGTQLTVSS | low polyreactivity
QVQRVDSGGGLVQAGGSLRLSCAASGITLLRYTMGWYRQAPGKERELLASITKRGGSTYYADSVKGRFTISRDNAKNTVYLQMNSLKPEDTAVYYCNADRHNSYYRKWDQLDMDYWGQGTQVTVSS | high polyreactivity
QVQRVESAGGLVQARGSLRLSSAASGRIFKAYAMGCYRQAPGKERELVAAISRSGGNTYYADSVKGRFTISRDNAKYTVYLQLNSLKPEETAVYYCAARRFWGSDYDYWGQGTQVTVSS | high polyreactivity
QVQRVESAGRLVQAGGSLRLSCAPSGRTFPGNDMGWYRQAPGKESEFVAAISSDDSTYYADSVKGRFTISRDNAKNTVYLQMNSLKPEDTGVYYSNAEYFEGYIGVPGSYWPYEYWGQGNQVTVSS | low polyreactivity
QVQRVESEGGLVQAGGSLRLSCAASGRTFENYAMGWYRQAPGKERELVATINGRSGNTYYADSVKGRFTISRDNAKNTVYLQLNSLKPDDTAVYYCNAYYEGDYTVGYDYWGQGTQVTVSS | high polyreactivity
QVQRVESGGCLVQAGGSLRLSCAASGRTFSYYTMGWYRQAPGKEREFVATINTSGGSTYYADSVKGRFTISRDNAKNTVYLQMNSLKPEDTAVYYCAADVYSFLSISYQWYRMDYWGQGTQVTVSS | low polyreactivity
QVQRVESGGGLDQARGSLRLSCAASGITLDRYDMGWYRQAPGKERELVAAISRSGVRTYYADSVKGRFTISRDNAKNTVYLQRNSLKPEDPAVYYCNKGYARRYASGYDYWGQGTQVTVSS | high polyreactivity
QVQRVESGGGLFQAGGRLRLSCAASGLIFPWYARGWYRQAPGKERELVAAISVRGGSTYYADSVKGRFTISRDNAKNTVYLQMNSLKPEDTAVYYCAASKRRASYRYYYWGQGTQVTVSS | high polyreactivity
QVQRVESGGGLFQAGGRLRLSCAATGSIFTPNAMGWYRQAPGKERELVAAISSSSDRTYYADSVKGRFTISRDKAKNTVYLQMNSLKPEDTAVYYCAAYAQKRYYWGQGTQVTVSS | high polyreactivity
QVQRVESGGGLGLAGGSLRLSCAASGITFVLYALGGYRQAPGKERALVASITWDATDTYYADSVKGRFTISRDNAKNTEYIPMNSLKPDDTAVSYCNAAYYNYWWLEYDYWGQGTQVTVSS | high polyreactivity
